The source of these data is publication PMC7773321.

For one experiment, the target named is Neutrophil elastase (UniProt P08246).
Sequence of UniProt P08246 (P08246 30-267): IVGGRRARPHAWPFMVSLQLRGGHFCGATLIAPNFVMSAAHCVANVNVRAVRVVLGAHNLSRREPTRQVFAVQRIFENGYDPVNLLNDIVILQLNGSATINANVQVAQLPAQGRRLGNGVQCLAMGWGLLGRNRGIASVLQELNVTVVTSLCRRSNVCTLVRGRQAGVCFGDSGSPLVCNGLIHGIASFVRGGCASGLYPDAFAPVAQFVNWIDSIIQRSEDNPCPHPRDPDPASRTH

On to “Ecotin from E. coli, C-terminal His6 fusion (from UniProt P23827 21-162) (natural protein)”, for which, in the experiment with Factor Xa, the cleavage of the FRET peptide Dabcyl-…-Edans by factor Xa with 15 nM ecotin, relative fluorescence units after 60 min (0-60 min followed; 350 RFU without ecotin) was 21.3 RFU. Also, the IC50 of inhibition of NE activity (fluorometric NE activity assay, 25 nM NE, 0-50 nM ecotin, 37°C) with Neutrophil elastase worked out at 4.64 nM.
“Ecotin from Campylobacter showae, C-terminal His6 fusion (natural protein)” yielded a cleavage of the FRET peptide Dabcyl-…-Edans by factor Xa with 15 nM ecotin, relative fluorescence units after 60 min (0-60 min followed; 350 RFU without ecotin) in the experiment with Factor Xa of 17.7 RFU. Moreover, in the experiment with Neutrophil elastase, the IC50 of inhibition of NE activity (fluorometric NE activity assay, 25 nM NE, 0-50 nM ecotin, 37°C) was 4.78 nM.
The matching figures for “Ecotin from Campylobacter rectus, C-terminal His6 fusion (natural protein)”: 48 RFU and 4.49 nM.
